In the supplement of paper PMC7877785:
± gives the uncertainty stated by the source.

Test: self-splicing fitness, log relative to wild type (ln ratio); higher = more splicing; Tetrahymena group I intron in knt gene, E. coli kanamycin selection, DiMSum; sequences stand for … in CUCUCU…GGAGGGAAAAGUUAUCAGGCAUGCACCUGGUAGCUAGUCUUUAAACCAAUAGAUUGCAUCGGUUUAAAAGGCAAGACCGUCAAAUUGCGGGAAAGGGGUCAACAGCCGUUCAGUACCAAGUCUCAGGGGAAACUUUGAGAUGGCCUUGCAAAGGGUAUGGUAAUAAGCUGACGGACAUGGUCCUAACCACGCAGCCAAGUCCUAAGUCAACAGAUCUUCUGUUGAUAUGGAUGCAGUUCACAGACUAAAUGUCGGUCGGGGAAGAUGUAUUCUUCUCAUAAGAUAUAGUCGGACCUCUCCUUAAUGGGAGCUAGCGGAUGAAGUGAUGCAACACUGGAGCCGCUGGGAACUAAUUUGUAUGCGAAAGUAUAUUGAUUAGUUUUGGAGUACUCGUGGUCG
Outline: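 The eight P1ex-region nucleotides of an intron in the knt kanamycin-resistance gene on pET-22b(+) were all randomised and the library put into E. coli BL21(DE3). Six replicate transformations were grown overnight at 37°C or 30°C on LB agar with or without 25 μg/mL kanamycin, together with 100 μg/mL carbenicillin, 50 μM IPTG and 0.2% rhamnose. Colonies were pooled and amplicon-sequenced on an Illumina HiSeq 2500. Fitness from DiMSum is the error-weighted combination of wild-type-normalised replicate fold changes, kanamycin over none.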

Sequence | self-splicing fitness (ln) (30 °C) | self-splicing fitness (ln) (37 °C)
GUCUAGCAAUAUUACGGCGG | -2.66 ± 0.42 | -2.32 ± 0.4
GUCUAGCAAUAUUACGGCUG | -2.04 ± 0.18 | -1.91 ± 0.21
GUCUAGCAAUAUUACGGGCG | -1.66 ± 0.28 | -0.341 ± 0.17
GUCUAGCAAUAUUACGGGCU | -3.5 ± 0.27 | -3.73 ± 0.3
GUCUAGCAAUAUUACGGGUA | -1.28 ± 0.11 | -0.285 ± 0.09
GUCUAGCAAUAUUACGGUAU | -0.441 ± 0.1 | 0.315 ± 0.11
GUCUAGCAAUAUUACGUAAA | -0.871 ± 0.085 | 0.379 ± 0.092
GUCUAGCAAUAUUACGUCCA | -1.07 ± 0.31 | -0.455 ± 0.21
GUCUAGCAAUAUUACGUCCC | 0.0985 ± 0.14 | -0.0539 ± 0.14
GUCUAGCAAUAUUACGUCUA | -1.33 ± 0.23 | -1.22 ± 0.16
GUCUAGCAAUAUUACGUGUA | -0.862 ± 0.084 | -0.516 ± 0.086
GUGAAGCAAUAUUACGAAGA | -0.478 ± 0.086 | -1.11 ± 0.14
GUGAAGCAAUAUUACGAAUG | -0.846 ± 0.075 | -0.708 ± 0.11
GUGAAGCAAUAUUACGAGAU | -2.25 ± 0.16 | -0.51 ± 0.19
GUGAAGCAAUAUUACGAUGA | -0.639 ± 0.075 | 0.631 ± 0.093
GUGAAGCAAUAUUACGCAAU | -0.705 ± 0.088 | -0.623 ± 0.12
GUGAAGCAAUAUUACGCGAG | -0.336 ± 0.057 | -0.0325 ± 0.07
GUGAAGCAAUAUUACGCGGC | -2.03 ± 0.33 | -1.24 ± 0.4
GUGAAGCAAUAUUACGCGGG | -2.8 ± 0.19 | -1.55 ± 0.2
GUGAAGCAAUAUUACGCUGC | -3.05 ± 0.21 | -2.19 ± 0.21
GUGAAGCAAUAUUACGCUUU | -4.83 ± 0.36 | -2.84 ± 0.43
